Assay results from patent US20200277377A1 (WUXI BIOLOGICS SHANGHAI, published 2020).

T1: human CTLA-4.ECD-6×His (human, UniProt P16410 36-161)
T1 construct: extracellular domain; also called WBP316.hCTLA-4.ECD-6×His; hCTLA4-His (WT)
T1 sequence: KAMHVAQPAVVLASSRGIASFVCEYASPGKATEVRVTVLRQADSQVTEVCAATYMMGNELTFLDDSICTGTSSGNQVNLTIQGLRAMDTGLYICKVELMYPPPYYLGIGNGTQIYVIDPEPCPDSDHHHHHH

T2: hCTLA4_ECD.His point mutant V73 to alanine (human, UniProt P16410 36-161)
T2 construct: extracellular domain; alanine-scan mutein, HEK293F supernatant
T2 sequence (looked up): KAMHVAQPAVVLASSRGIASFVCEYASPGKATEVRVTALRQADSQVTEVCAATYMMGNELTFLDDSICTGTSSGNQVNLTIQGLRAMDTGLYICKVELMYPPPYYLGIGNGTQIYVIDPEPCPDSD

T3: hCTLA4_ECD.His point mutant V71 to alanine (human, UniProt P16410 36-161)
T3 construct: extracellular domain; alanine-scan mutein, HEK293F supernatant
T3 sequence (looked up): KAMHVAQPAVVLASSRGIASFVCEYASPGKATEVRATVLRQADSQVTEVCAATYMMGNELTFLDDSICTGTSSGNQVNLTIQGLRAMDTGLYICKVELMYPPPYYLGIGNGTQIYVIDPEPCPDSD

T4: hCTLA4_ECD.His point mutant V40 to alanine (human, UniProt P16410 36-161)
T4 construct: extracellular domain; alanine-scan mutein, HEK293F supernatant
T4 sequence (looked up): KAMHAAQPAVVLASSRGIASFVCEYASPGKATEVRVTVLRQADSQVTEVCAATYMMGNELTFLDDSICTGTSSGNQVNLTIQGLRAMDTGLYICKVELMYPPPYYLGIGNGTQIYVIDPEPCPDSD

T5: hCTLA4_ECD.His point mutant A66 to glycine (human, UniProt P16410 36-161)
T5 construct: extracellular domain; alanine-scan mutein (alanine residues were mutated to glycine), HEK293F supernatant
T5 sequence (looked up): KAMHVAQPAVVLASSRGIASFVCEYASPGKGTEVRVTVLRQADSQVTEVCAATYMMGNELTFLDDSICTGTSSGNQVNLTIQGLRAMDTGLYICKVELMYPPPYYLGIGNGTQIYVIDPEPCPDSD

T6: human CTLA-4.ECD.hFc (human, UniProt P16410 36-161)
T6 construct: extracellular domain; also called hCTLA-4.ECD.hFc; not shown: human Fc tag (hFc)
T6 sequence (looked up): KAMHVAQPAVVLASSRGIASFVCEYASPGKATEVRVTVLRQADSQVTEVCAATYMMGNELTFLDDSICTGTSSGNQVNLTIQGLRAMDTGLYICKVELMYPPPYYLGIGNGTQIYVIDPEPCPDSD


Legend:
PD-1 = PD-1 (Homo sapiens (Human), UniProt Q15116 25-170); assay: specificity ELISA on coated antigens, OD
Protocol: (§1) In the ELISA assay, the testing antibodies, isotype control antibodies were tested binding to 10 different target antigens including Factor VIII, FGFR-ECD, PD-1, CTLA-4.ECD, VEGF, HER3.ECD, OX40.ECD, 4-1BB.ECD, CD22.ECD, CD3e.ECD. A 96-well plate was coated with the individual antigens (2 μg/mL) at 4° C. overnight. After 1 hour blocking with 2% BSA in PBS, wash plate 3 times with 300 μL PBST. Testing antibodies, as well as isotype control antibodies were diluted to 10 μg/mL in PBS containing 2% BSA, then were added to the plate and incubated at room temperature for 2 hours. After 3 times washing with 300 μL PBST, HRP-conjugated goat anti-human IgG antibody (1:5000 diluted in 2% BSA) was added to the plate and incubated at room temperature for 1 hours. Finally, the plates were washed six times with 300 μL PBST. The color was developed by dispensing 100 μL of TMB substrate for 12 min, and then stopped by 100 μL of 2M HCl.

4-1BB.ECD = 4-1BB.ECD (Homo sapiens (Human), UniProt Q07011 24-186); assay: specificity ELISA on coated antigens, OD
Protocol: as §1

CD3e.ECD = CD3e.ECD (Homo sapiens (Human), UniProt P07766 23-126); assay: specificity ELISA on coated antigens, OD
Protocol: as §1

HER3.ECD = HER3.ECD (Homo sapiens (Human), UniProt P21860 20-643); assay: specificity ELISA on coated antigens, OD
Protocol: as §1

human CTLA-4.ECD-6×His = target: T1, human CTLA-4.ECD-6×His; assay: ELISA, coated human CTLA-4.ECD-6×His
Protocol: ELISA was used to test binding of anti-human CTLA-4 antibodies to human, murine and cynomolgus monkey CTLA-4 protein. A 96-well plate was coated with human CTLA-4.ECD-6×His (1.0 μg/mL), cynomoguls monkey CTLA-4.ECD-6×His (0.5 μg/mL) or mouse CTLA-4.ECD-6×His (0.5 μg/mL) at 4° C. for 16-20 hours. After 1 hour blocking with 2% BSA in DBPS, testing antibodies, as well as positive and negative control antibodies were added to the plates and incubated at room temperature for 1 hour. The binding of the antibodies to the plates were detected by HRP-conjugated goat anti-human IgG antibody (1:5000 dilution) with 1 hour incubation. The color was developed by dispensing 100 μL of TMB substrate for 8 mins, and then stopped by 100 μL of 2N HCl.

[1] = target: T2, hCTLA4_ECD.His point mutant V73 to …; assay: capture ELISA, alanine scan, vs silent alanine substitutions
Protocol: (§2) In order to test how the mutations affect antibody-binding, a capture ELISA was conducted. […] After interacting with the supernatant that contains quantified CTLA4 muteins, HRP conjugated anti-His antibody (1:5000; Rockland Immunochemicals, Pottstown, Pa.) was added as detection antibody. TMB was used as substance of HRP. Absorbance was normalized according to the average of control mutants. After setting an additional cutoff to the binding fold change (<0.55), the final determined epitope residues were identified.

[2] = target: T3, hCTLA4_ECD.His point mutant V71 to …; assay: as above
Protocol: as §2

[3] = target: T4, hCTLA4_ECD.His point mutant V40 to …; assay: as above
Protocol: as §2

[4] = target: T5, hCTLA4_ECD.His point mutant A66 to …; assay: as above
Protocol: as §2

human CTLA-4.ECD.hFc = target: T6, human CTLA-4.ECD.hFc; assay: competition ELISA, coated human CTLA-4.ECD.hFc, competitor CD86-6×His
Protocol: Plates were coated with human CTLA-4.ECD.hFc (0.5 μg/mL) at 4° C. for 16-20 hours. […] After washing three times with PBS containing 0.05% Tween 20, biotinylated anti-His tag antibody was 1:2000 diluted and added. The plates were incubated at room temperature for 1 hour. The bound ligands were detected by HRP conjugated streptavidin (1:20000). The color was developed by dispensing 100 μL of TMB substrate for 8 mins, and then stopped by 100 μL of 2N HCl.

Sequence of CD3e.ECD (P07766 23-126 limits assumed): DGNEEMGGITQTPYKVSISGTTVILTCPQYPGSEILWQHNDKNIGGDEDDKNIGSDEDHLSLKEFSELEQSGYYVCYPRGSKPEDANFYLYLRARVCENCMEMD
Sequence of HER3.ECD (P21860 20-643 limits assumed): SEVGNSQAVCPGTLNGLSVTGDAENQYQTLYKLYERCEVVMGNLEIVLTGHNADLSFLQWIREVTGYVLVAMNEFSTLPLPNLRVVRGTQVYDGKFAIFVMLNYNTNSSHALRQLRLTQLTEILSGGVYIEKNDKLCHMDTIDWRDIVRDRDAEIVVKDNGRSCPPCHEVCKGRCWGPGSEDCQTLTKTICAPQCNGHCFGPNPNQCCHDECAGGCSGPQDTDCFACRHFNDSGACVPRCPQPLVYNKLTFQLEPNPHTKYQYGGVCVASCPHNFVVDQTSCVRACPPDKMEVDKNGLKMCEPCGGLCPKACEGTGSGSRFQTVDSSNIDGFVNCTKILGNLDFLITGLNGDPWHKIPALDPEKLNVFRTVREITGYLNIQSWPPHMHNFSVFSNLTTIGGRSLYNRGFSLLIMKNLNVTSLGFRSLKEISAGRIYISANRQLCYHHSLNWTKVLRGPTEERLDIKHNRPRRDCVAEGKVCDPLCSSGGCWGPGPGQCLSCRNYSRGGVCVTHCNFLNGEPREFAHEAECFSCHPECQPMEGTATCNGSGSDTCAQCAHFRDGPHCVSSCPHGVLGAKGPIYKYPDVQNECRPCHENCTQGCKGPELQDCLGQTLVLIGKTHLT
Sequence of PD-1 (Q15116 25-170 limits assumed): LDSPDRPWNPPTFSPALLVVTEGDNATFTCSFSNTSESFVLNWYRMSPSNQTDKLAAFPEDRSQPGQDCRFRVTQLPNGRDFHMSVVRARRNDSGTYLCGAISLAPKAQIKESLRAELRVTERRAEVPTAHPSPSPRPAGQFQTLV

Binder | binding result (PD-1) | binding result (4-1BB.ECD) | binding result (CD3e.ECD) | binding result (HER3.ECD) | EC50 (human CTLA-4.ECD-6×His) [pM] | Fold change [1] [fold] | Fold change [2] [fold] | Fold change [3] [fold] | Fold change [4] [fold] | IC50 (human CTLA-4.ECD.hFc) [pM]
W3162-1.146.19-z12-uAb.IgG1K (antibody, V domains shown, Humanized; label says IgG1K) VH: QVQLQESGPGLVKPSETLSLTCSVTYHTITSGYDWTWIRKPPGKGMEWIGYISYSGNTNYNPSLKSRVTISRDTSKNQFFLKLSSVTAADTAVYYCASMMVPHYYVMDAWGQGTLVTVSS VL: DIVMTQTPLSLSVTPGQPASISCRSSQSLLNSDGNTYLYWYLQKPGQSPQLLIYLVSKLGSGVPNRFSGSGSGTDFTLKISRVEAEDVGVYYCVQGTHDPWTFGGGTKVEIK | no binding (tested: 10 ug/mL) | no binding (tested: 10 ug/mL) | no binding (tested: 10 ug/mL) | no binding (tested: 10 ug/mL) | 30 | 0.338 | 0.343 | 0.181 | 0.395 | 710
W3162_1.154.8-z35-uAb.IgG1K (antibody, V domains shown, Humanized; label says IgG1K) VH: QVQLVQSGAEVKKPGSSVKVSCKASGYTFTNYFMNWVRQAPGQGLEWMGRVDPEQGRADYAEKFKKRVTITADKSTSTAYMELSSLRSEDTAVYYCARRAMDNYGFAYWGQGTLVTVSS VL: EIVLTQSPDFQSVTPKEKVTITCSANSALSYMYWYQQKPDQSPKLWVHGTSNLASGVPSRFSGSGSGTDFTLTINSLEAEDAATYYCHHWSNTQWTFGGGTKVEIK | no binding (tested: 10 ug/mL) | no binding (tested: 10 ug/mL) | no binding (tested: 10 ug/mL) | no binding (tested: 10 ug/mL) | 40 | 0.498 | 0.347 | 0.187 | 0.519 | 500
